Data as given in publication PMC2998059.

Target: GST-PC1 C-terminus deletion mutant SH3
Assay: pull-down

binding relative to PC1-FLCT: 50%
Substance: myc-tagged QLα12 (constitutively active, GTPase-deficient Gα12) (from UniProt P27600 48-379) (natural protein)
